According to publication PMC10039853, “Increasing the melting temperature of VHH with the in silico free energy score” (Scientific Reports, 2023):

Tests used:
hen egg lysozyme [1] = target: T1, hen egg lysozyme (Gallus gallus (hen egg white), UniProt P00698); test: SPR; Biacore T200; lysozyme immobilised on Sensor Chip CM5 by amine coupling to 200 RU; VHH injected 300 s, dissociation 600 s; running buffer PBST (PBS, 0.005% Tween 20); duplicate; 1:1 binding model; details: both partners purified
T1 construct: hen egg lysozyme (HEL), antigen of VHH D3-L11; also in the complex structure PDB 6JB8; also called HEL; antigen lysozyme; source: bought: Sigma-Aldrich, Cat No. L6876 (named for the ELISA)

hen egg lysozyme [2] = target: T1, hen egg lysozyme; test: ELISA; lysozyme (1 ug/mL) coated on 384-well MaxiSorp plate overnight at 4 °C; serial concentrations of VHH in 5% BlockingOne in TBST, 1 h at room temperature; detected with Penta-His HRP conjugate; details: both partners purified

T1 sequence (P00698 19-147): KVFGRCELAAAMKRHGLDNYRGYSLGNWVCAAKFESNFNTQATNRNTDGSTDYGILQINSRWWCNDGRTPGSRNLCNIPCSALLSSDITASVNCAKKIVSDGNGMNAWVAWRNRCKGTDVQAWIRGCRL

Row | Binder | fold decrease in affinity (KD) against wild type (hen egg lysozyme [1]) [fold] | fold decrease in affinity (EC50) against wild type (hen egg lysozyme [2]) [fold]
1 | D3-L11 A79L (VHH, as the VHH chain of m2 (D3-L11, PDB 6JB8) with the stated substitution; Second-round mutant; same construct as m2; also called L mutant; source: ExpiCHO, transient transfection, purified from supernatant (His Mag Sepharose excel); not shown: His6 (after a SAG tripeptide linker), C-terminal, kept) VHH: DVQLVESGGGSVQAGGSLRLSCAASGSTDSIEYMTWFRQAPGKAREGVAALYTHTGNTYYTDSVKGRFTISQDKAKNMLYLRMDSVKSEDTAIYTCGATRKYVPVRFALDQSSYDYWGQGTQVTVSS | < 10 | < 10
2 | D3-L11 A79M (VHH, as the VHH chain of m2 (D3-L11, PDB 6JB8) with the stated substitution; Second-round mutant; same construct as m2; also called M mutant; source: ExpiCHO, transient transfection, purified from supernatant (His Mag Sepharose excel); not shown: His6 (after a SAG tripeptide linker), C-terminal, kept) VHH: DVQLVESGGGSVQAGGSLRLSCAASGSTDSIEYMTWFRQAPGKAREGVAALYTHTGNTYYTDSVKGRFTISQDKAKNMMYLRMDSVKSEDTAIYTCGATRKYVPVRFALDQSSYDYWGQGTQVTVSS | < 10 | < 10
3 | D3-L11 A79N (VHH, as the VHH chain of m2 (D3-L11, PDB 6JB8) with the stated substitution; Second-round mutant; same construct as m2; also called N mutant; source: ExpiCHO, transient transfection, purified from supernatant (His Mag Sepharose excel); not shown: His6 (after a SAG tripeptide linker), C-terminal, kept) VHH: DVQLVESGGGSVQAGGSLRLSCAASGSTDSIEYMTWFRQAPGKAREGVAALYTHTGNTYYTDSVKGRFTISQDKAKNMNYLRMDSVKSEDTAIYTCGATRKYVPVRFALDQSSYDYWGQGTQVTVSS | < 10 | < 10
4 | D3-L11 A79S (VHH, as the VHH chain of m2 (D3-L11, PDB 6JB8) with the stated substitution; Second-round mutant; same construct as m2; also called S mutant; source: ExpiCHO, transient transfection, purified from supernatant (His Mag Sepharose excel); not shown: His6 (after a SAG tripeptide linker), C-terminal, kept) VHH: DVQLVESGGGSVQAGGSLRLSCAASGSTDSIEYMTWFRQAPGKAREGVAALYTHTGNTYYTDSVKGRFTISQDKAKNMSYLRMDSVKSEDTAIYTCGATRKYVPVRFALDQSSYDYWGQGTQVTVSS | < 10 | < 10
5 | D3-L11 A79V (VHH, as the VHH chain of m2 (D3-L11, PDB 6JB8) with the stated substitution; Second-round mutant; same construct as m2; also called V mutant; source: ExpiCHO, transient transfection, purified from supernatant (His Mag Sepharose excel); not shown: His6 (after a SAG tripeptide linker), C-terminal, kept) VHH: DVQLVESGGGSVQAGGSLRLSCAASGSTDSIEYMTWFRQAPGKAREGVAALYTHTGNTYYTDSVKGRFTISQDKAKNMVYLRMDSVKSEDTAIYTCGATRKYVPVRFALDQSSYDYWGQGTQVTVSS | < 2 | < 10
